In publication PMC7317968, “A GM1b/asialo‐GM1 oligosaccharide‐binding R‐type lectin from purplish bifurcate mussels Mytilisepta virgata and its effect on MAP kinases” (The Febs Journal, 2019):

Target: the molecule itself
Test: AUC; sedimentation velocity, sample about 1.0 mg/mL, 50 mM potassium phosphate pH 7.4, 0.1 M NaCl, 293 K, c(s) analysis in SEDFIT converted to c(M); native mass 30 kDa

B1: Mytilisepta virgata R-type lectin SeviL (natural protein, UniProt A0A646QV53 1-129, looked up)
chain: MSSVTIGKCYIQNRENGGRAFYNLGRKDLGIFTGKMYDDQIWSFQKSDTPGYYTIGRESKFLQYNGEQVIMSDIEQDTTLWSLEEVPEDKGFYRLLNKVHKAYLDYNGGDLVANKHQTESEKWILFKAY
notes: SeviL (variant SeviL-1), R-type (ricin B-type) lectin of Mytilisepta virgata, 129 amino acids, 15 kDa; Native protein isolated from tissue; also called SeviL-1; mytvir1; source: purified from Mytilisepta virgata mantles and gills (lactosyl-agarose column, eluted with 50 mM lactose)
B1 was tested, and the “stoichiometry N” value was 2.
